# Reference: US20240294623A1 (SCHOLAR ROCK, published 2024)
# Legend:
# [1] = target: T1, hLRRC33-proTGFβ1 (human, UniProt Q86YC3 19-650; P01137 30-390, limits assumed); assay: BLI (Octet)
# T1 construct: LLC as m1; Same id used for the cell-surface complex in reporter assays; also called human LRRC33-proTGFβ1 complex; LRRC33-ProTGFb1
# [2] = target: T2, hGARP-proTGFβ1 (human, UniProt Q14392 18-627; P01137 30-390, limits assumed); assay: BLI (Octet)
# T2 construct: LLC as m1; Same id used for the cell-surface complex in reporter assays; also called human GARP-proTGFβ1 complex; GARP-ProTGFb1
# [3] = target: T3, hLTBP1-proTGFβ1 (human, UniProt Q14766 347-1721; P01137 30-390, limits assumed); assay: BLI (Octet)
# T3 construct: Large latent complex (LLC): proTGFβ1 dimer disulfide-linked to one presenting molecule; recombinant, purified, biotinylated in BLI/SPR; The same id is used for the complex made by transfected cells in the reporter assays; also called human LTBP1-proTGFβ1 complex; LTBP1-ProTGFb1
# [4] = target: T4, hLTBP3-proTGFβ1 (human, UniProt Q9NS15 44-1303; P01137 30-390, limits assumed); assay: BLI (Octet)
# T4 construct: LLC as m1; Same id used for the cell-made complex in reporter assays; also called human LTBP3-proTGFβ1 complex; LTBP3-ProTGFb1
# [5] = target: T1, hLRRC33-proTGFβ1; assay: MSD-SET, hIgG4
# Description: (§1) For solution equilibrium titration-based binding assays, protein complexes that comprise one of the presenting molecules such as those shown above may be employed as antigen (presenting molecule-TGFβ1 complex, or an LLC). Test antibodies are allowed to form antigen-antibody complex in solution. Antigen-antibody reaction mixtures are incubated to allow an equilibrium to be reached; the amount of the antigen-antibody complex present in the assay reactions can be measured by suitable means well known in the art. As compared to BLI-based assays, SET-based assays are less affected by on/off rates of the antigen-antibody complex, allowing sensitive detection of very high affinity interactions.
# [6] = target: T2, hGARP-proTGFβ1; assay: MSD-SET, hIgG4
# Description: as §1
# [7] = target: T3, hLTBP1-proTGFβ1; assay: MSD-SET, hIgG4
# Description: as §1
# [8] = target: T4, hLTBP3-proTGFβ1; assay: MSD-SET, hIgG4
# Description: as §1
# [9] = target: T5, mLTBP3-proTGFβ1 (mouse); assay: MSD-SET
# T5 construct: Murine LLC; also called murine LTBP3-proTGFβ1 complex
# [10] = target: T6, mLTBP1-proTGFβ1 (mouse); assay: MSD-SET
# T6 construct: Murine LLC; also called murine LTBP1-proTGFβ1 complex
# [11] = target: T7, mGARP-proTGFβ1 (mouse); assay: MSD-SET
# T7 construct: Murine LLC; also called murine GARP-proTGFβ1 complex
# [12] = target: T1, hLRRC33-proTGFβ1; assay: MSD-SET
# [13] = target: T2, hGARP-proTGFβ1; assay: MSD-SET
# [14] = target: mLRRC33-proTGFβ1 (murine, UniProt Q8BMT4 20-651); assay: MSD-SET
# [15] = target: T3, hLTBP1-proTGFβ1; assay: MSD-SET
# [16] = target: T4, hLTBP3-proTGFβ1; assay: MSD-SET
# T4 sequence (Q9NS15 44-1303 limits assumed, chain 1 of 2): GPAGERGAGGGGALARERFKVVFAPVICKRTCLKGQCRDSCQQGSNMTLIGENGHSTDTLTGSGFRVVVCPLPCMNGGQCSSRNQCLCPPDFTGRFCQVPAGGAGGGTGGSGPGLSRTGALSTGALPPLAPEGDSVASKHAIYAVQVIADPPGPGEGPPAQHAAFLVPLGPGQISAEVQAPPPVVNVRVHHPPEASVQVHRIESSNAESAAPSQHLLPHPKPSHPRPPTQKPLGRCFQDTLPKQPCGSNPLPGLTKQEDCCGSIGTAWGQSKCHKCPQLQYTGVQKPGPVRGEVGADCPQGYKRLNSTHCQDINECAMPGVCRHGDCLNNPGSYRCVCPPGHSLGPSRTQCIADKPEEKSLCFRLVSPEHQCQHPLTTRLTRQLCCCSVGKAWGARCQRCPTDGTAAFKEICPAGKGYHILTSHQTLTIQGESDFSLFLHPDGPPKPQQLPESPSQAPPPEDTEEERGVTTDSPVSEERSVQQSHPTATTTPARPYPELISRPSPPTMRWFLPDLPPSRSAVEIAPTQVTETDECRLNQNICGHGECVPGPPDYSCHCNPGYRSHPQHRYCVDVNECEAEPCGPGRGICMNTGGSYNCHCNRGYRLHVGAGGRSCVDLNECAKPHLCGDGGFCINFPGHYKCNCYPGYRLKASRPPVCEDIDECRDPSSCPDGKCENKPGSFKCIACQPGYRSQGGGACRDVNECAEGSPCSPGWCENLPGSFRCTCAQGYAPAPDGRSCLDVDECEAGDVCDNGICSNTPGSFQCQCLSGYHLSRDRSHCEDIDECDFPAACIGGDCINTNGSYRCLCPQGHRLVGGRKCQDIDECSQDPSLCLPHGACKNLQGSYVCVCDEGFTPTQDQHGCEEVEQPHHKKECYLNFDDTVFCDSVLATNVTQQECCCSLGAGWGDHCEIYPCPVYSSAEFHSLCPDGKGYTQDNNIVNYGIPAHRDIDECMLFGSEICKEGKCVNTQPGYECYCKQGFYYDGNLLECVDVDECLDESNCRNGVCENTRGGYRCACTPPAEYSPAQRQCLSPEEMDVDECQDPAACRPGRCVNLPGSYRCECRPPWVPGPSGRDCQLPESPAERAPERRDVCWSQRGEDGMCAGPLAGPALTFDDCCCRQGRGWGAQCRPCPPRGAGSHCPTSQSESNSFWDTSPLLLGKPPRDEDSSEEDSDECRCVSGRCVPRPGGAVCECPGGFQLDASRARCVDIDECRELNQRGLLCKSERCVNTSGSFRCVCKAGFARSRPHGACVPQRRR
# T4 sequence (P01137 30-390 limits assumed, chain 2 of 2): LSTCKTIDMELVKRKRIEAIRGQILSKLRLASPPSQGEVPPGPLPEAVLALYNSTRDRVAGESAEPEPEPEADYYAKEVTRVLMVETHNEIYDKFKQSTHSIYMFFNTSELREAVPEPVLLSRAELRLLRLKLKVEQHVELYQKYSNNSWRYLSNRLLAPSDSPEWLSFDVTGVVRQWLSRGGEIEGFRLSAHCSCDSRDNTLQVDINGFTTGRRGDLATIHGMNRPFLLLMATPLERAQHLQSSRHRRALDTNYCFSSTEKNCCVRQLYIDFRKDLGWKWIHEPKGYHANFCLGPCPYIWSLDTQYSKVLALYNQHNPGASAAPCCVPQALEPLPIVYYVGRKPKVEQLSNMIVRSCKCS
# T2 sequence (Q14392 18-627 limits assumed, chain 1 of 2): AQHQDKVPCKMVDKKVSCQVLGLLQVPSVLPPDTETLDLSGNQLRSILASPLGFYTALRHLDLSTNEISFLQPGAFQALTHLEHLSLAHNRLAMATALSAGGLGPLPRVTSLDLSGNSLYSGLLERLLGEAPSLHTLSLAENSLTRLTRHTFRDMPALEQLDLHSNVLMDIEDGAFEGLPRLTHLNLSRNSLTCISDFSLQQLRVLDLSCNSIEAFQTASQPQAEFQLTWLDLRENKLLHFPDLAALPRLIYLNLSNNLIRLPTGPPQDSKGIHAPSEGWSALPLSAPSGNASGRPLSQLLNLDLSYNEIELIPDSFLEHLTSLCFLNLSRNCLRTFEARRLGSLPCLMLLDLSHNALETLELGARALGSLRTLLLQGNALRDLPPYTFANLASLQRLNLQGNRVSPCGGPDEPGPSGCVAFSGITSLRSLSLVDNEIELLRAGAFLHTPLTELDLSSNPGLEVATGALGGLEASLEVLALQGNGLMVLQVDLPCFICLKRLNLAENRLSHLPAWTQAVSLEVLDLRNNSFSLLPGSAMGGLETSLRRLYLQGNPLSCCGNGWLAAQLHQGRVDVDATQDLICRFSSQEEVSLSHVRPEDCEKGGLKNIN
# T2 sequence (P01137 30-390 limits assumed, chain 2 of 2): as the sequence (P01137 30-390 limits assumed, chain 2 of 2) above
# T3 sequence (Q14766 347-1721 limits assumed, chain 1 of 2): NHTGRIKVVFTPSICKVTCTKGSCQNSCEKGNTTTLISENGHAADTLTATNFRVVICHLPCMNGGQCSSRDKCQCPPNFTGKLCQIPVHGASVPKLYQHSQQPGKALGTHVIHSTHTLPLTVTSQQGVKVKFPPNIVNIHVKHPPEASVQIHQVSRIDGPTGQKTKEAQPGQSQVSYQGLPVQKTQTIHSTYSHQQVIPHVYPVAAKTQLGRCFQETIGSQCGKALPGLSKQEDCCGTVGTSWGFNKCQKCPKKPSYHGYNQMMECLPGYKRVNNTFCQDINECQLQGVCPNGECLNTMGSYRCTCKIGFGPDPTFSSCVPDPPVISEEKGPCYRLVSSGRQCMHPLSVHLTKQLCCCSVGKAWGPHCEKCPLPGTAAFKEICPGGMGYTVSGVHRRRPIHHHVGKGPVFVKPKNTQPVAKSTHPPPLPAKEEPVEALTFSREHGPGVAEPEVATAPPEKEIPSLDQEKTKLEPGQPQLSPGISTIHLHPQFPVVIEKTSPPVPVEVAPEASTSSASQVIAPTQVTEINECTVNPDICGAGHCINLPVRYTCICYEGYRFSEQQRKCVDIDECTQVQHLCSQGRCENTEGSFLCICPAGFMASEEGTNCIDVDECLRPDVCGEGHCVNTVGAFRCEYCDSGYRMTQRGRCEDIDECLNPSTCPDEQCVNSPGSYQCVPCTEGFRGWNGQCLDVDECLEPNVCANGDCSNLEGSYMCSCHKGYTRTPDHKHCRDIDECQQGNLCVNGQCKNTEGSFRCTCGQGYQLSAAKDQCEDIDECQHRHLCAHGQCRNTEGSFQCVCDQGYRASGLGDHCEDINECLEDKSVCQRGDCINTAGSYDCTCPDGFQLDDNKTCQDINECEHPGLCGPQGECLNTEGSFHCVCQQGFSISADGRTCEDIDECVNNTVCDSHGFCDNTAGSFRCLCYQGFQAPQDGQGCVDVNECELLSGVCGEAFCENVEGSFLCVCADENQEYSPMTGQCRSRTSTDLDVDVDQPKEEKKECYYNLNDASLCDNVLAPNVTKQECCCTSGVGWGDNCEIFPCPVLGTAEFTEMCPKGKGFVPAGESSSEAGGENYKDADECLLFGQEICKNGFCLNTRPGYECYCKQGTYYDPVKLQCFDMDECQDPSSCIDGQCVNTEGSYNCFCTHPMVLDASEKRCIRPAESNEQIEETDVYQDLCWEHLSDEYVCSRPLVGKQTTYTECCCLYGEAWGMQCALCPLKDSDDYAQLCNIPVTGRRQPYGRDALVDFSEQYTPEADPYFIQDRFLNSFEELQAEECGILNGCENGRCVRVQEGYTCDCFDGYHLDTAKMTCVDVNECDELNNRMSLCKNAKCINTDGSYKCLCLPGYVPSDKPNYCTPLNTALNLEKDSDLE
# T3 sequence (P01137 30-390 limits assumed, chain 2 of 2): as the sequence (P01137 30-390 limits assumed, chain 2 of 2) above
# T1 sequence (Q86YC3 19-650 limits assumed, chain 1 of 2): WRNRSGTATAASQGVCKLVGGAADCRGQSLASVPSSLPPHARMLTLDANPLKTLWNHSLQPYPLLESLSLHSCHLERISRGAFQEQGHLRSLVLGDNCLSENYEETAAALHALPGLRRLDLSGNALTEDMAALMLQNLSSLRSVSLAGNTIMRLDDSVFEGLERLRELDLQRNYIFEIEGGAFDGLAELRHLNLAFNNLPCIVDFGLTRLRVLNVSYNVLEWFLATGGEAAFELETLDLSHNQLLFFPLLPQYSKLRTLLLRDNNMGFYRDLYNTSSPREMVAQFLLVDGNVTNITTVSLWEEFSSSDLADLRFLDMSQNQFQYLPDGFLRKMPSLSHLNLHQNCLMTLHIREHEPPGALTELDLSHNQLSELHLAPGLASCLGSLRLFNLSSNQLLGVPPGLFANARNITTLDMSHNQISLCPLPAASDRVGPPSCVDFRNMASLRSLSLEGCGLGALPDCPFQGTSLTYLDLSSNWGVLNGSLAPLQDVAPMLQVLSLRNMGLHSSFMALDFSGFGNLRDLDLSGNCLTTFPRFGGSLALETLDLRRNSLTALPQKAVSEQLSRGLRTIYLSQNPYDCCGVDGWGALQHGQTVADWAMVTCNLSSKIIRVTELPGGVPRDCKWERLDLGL
# T1 sequence (P01137 30-390 limits assumed, chain 2 of 2): as the sequence (P01137 30-390 limits assumed, chain 2 of 2) above
# mLRRC33-proTGFβ1, sequence (Q8BMT4 20-651): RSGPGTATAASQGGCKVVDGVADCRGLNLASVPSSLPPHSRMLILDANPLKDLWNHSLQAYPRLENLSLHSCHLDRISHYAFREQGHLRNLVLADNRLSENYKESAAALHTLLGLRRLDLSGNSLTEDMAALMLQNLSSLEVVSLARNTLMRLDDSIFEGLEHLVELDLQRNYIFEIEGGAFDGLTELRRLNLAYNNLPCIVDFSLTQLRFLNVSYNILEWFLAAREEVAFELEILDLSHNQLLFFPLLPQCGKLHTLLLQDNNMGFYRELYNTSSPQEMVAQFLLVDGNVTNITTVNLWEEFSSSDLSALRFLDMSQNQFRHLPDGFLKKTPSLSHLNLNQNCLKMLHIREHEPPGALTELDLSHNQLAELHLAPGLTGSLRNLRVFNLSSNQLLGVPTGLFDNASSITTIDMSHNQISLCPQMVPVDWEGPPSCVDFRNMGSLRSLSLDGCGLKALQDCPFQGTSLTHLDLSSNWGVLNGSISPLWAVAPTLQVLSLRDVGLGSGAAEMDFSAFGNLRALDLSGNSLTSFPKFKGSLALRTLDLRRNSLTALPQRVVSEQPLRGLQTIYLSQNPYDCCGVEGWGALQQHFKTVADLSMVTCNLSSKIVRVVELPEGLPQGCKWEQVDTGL
binder,measurement,setting,value
"Ab6 (antibody, V domains shown, Fully human IgG4/kappa) VH: EVQLVESGGGLVQPGGSLRLSCTASGFTFSSFSMDWVRQAPGKGLEWVSYISPSADTIYYADSVKGRFTISRDNAKNTLYLQMNSLRAEDTAVYYCARGVLDYGDMLMPWGQGTLVTVSS VL: DIQMTQSPSSLSASVGDRVTITCQASQDITNYLNWYQQKPGKAPKLLIYDASNLETGVPSRFSGSGSGTDFTFTISSLQPEDIATYYCQQADNHPPWTFGGGTKVEIKR",Kd,[1],0.336 nM
same,Kd,[2],0.404 nM
same,Kd,[3],0.207 nM
same,Kd,[4],0.123 nM
same,Kd,[5],0.063 nM
same,Kd,[6],0.027 nM
same,Kd,[7],0.018 nM
same,Kd,[8],0.029 nM
same,Kd,[9],0.028 nM
same,Kd,[10],0.024 nM
same,Kd,[11],0.021 nM
same,Kd,[12],0.063 nM
same,Kd,[13],0.027 nM
same,Kd,[14],0.048 nM
same,Kd,[15],0.018 nM
same,Kd,[16],0.029 nM
